Measurements: patent US20240084039A1
Where a chain is given by its changes, count along the chain named.

B1: PRO2669 (protein)
chain 1: DVQMTQSPSSLSASVGDRVTITCRASENIYSGLAWYQQKPGKPPKLLIYRASTLASGVSSRFSGSGSGTDFTLTISSLQPEDFATYYCQGGYYSSSSTYIAFGTGTKVTVLGGGGGSGGGGSGGGGSGGGGSQSQVVESGGGRVQPGGSLRLSCAVSGFDLSSYAVSWVRQAPGKGLEWIGIIYPRANTYYASWAKGRFTISKDNSKNTVYLQMNSLRAEDTATYFCARDRYDSGAYLYTTYFNLWGQGTQVTVSSGGGGSGGGGSAFELTQSPSSLSASVGDRVTITCQASESINSRLAWYQQKPGQPPKLLIYDASDLTSGVPSRFSGSGSGTDFTLTISSLQPEDFATYYCQGYGGSSTTTFGCGTKLTVLGGGSGGSDIQMTQSPSSLSASVGDRVTITCQSSQSVFSNNYLAWFQQKPGQSPKRLIYSASTLASGVPSRFSGSGSGTDFTLTISSLQPEDFATYYCLGSYACSSADCYVFGTGTKVTVLG
chain 2: DVQMTQSPSSLSASVGDRVTITCRASENIYSGLAWYQQKPGKPPKLLIYRASTLASGVSSRFSGSGSGTDFTLTISSLQPEDFATYYCQGGYYSSSSTYIAFGTGTKVTVLGGGGGSGGGGSGGGGSGGGGSQSQVVESGGGRVQPGGSLRLSCAVSGFDLSSYAVSWVRQAPGKGLEWIGIIYPRANTYYASWAKGRFTISKDNSKNTVYLQMNSLRAEDTATYFCARDRYDSGAYLYTTYFNLWGQGTQVTVSSGGGGSGGGGSEVQLVESGGGRVQPGGSLRLSCAASGFSLSSYDMSWVRQAPGKGLAWIGASYASGPTYYASWAKGRFTISRDNSKNTVYLQMNSLRAEDTATYFCARGGWTGTSHSNIWGQGTQVTVSSGGGSGGGSGGGSGEVQLVESGGGRVQPGGSLRLSCAASGFSLSSYAMNWVRQAPGKCLEWIGHINAGDIAYYATWAKGRFTISRDNSKNTVYLQMNSLRAEDTATYFCARGAGGFSTGPFKLWGQGTQVTVSS
B2: PRO2510 (protein)
chain: AFELTQSPSSLSASVGDRVTITCQASESINSRLAWYQQKPGQPPKLLIYDASDLTSGVPSRFSGSGSGTDFTLTISSLQPEDFATYYCQGYGGSSTTTFGCGTKLTVLGGGGGSEVQLVESGGGLVQPGGSLRLSCAASGFSLSSYDMSWVRQAPGKGLAWIGASYASGPTYYASWAKGRFTISRDNSKNTVYLQMNSLRAEDTATYFCARGGWTGTSHSNIWGQGTLVTVSSGGGGSGGGGSGGGGSGGGGSDIQMTQSPSSLSASVGDRVTITCQSSQSVFSNNYLAWFQQKPGQSPKRLIYSASTLASGVPSRFSGSGSGTDFTLTISSLQPEDFATYYCLGSYACSSADCYVFGTGTKVTVLGGGGGSEVQLVESGGGLVQPGGSLRLSCAASGFSLSSYAMNWVRQAPGKCLEWIGHINAGDIAYYATWAKGRFTISRDNSKNTVYLQMNSLRAEDTAVYFCARGAGGFSTGPFKLWGQGTLVTVSSGGGGSGGGGSAQQLTQSPSSLSASVGDRVTITCQASQNVWNNNYLSWFQQKPGKPPKLLIVTASTLASGVSSRFSGSGSGTDFTLTISSLQPEDFATYYCAGGFSGEIRAFGCGTKVTVLGGGGGSGGGGSGGGGSGGGGSQSQLVESGGGLVQPGGSLRLSCAVSGLSLSRNAMSWVRQAPGKCLEWIGIILTSGSTYYASWAKGRFTISKDNSKNTVYLQMNSLRAEDTAVYFCVRGIASSSLKSFWGQGTLVTVSS
B3: PRO1922 (scFv)
scFv: DIQMTQSPSSLSASVGDRVTITCQASESIYSSLAWYQQKPGKAPKLLIYLASTLASGVPSRFSGSGSGTDFTLTISSLQPEDFATYYCQSTDYTTSTHRNSFGTGTKVTVLGGGGGSGGGGSGGGGSGGGGSEVQLVESGGGLVQPGGSLRLSCAASGFSFSTTYYMCWVRQAPGKGLEWIGCTNTASSVRTYYATWAKGRFTISRDNSKNTVYLQMNSLRAEDTAVYYCARDMGFADYALNLWGQGTLVTVSS
B4: PRO2230 (scFv)
scFv: DIQMTQSPASLSASVGDRVTITCQASQSIGTYLAWYQQKPGKPPKLLIYRAFILASGVPSRFSGSGSGTDFTLTISSLQPEDFATYYCQSNFYSDSTTIGPNAFGTGTKVTVLGGGGGSGGGGSGGGGSGGGGSEVQLVESGGGLVQPGGSLRLSCAASGFSFNSDYWIYWVRQAPGKGLEWIASIYGGSSGNTQYASWAQGRFTISRDNSKNTVYLQMNSLRAEDTAVYFCARGYVDYGGATDLWGQGTLVTVSS
B5: NM21-1480 (PRO1480) (protein)
chain: DIQMTQSPASLSASVGDRVTITCQASQSIGTYLAWYQQKPGKPPKLLIYRAFILASGVPSRFSGSGSGTDFTLTISSLQPEDFATYYCQSNFYSDSTTIGPNAFGTGTKVTVLGGGGGSEVQLVESGGGLVQPGGSLRLSCAASGFSFSANYYPCWVRQAPGKGLEWIGCIYGGSSDITYDANWTKGRFTISRDNSKNTVYLQMNSLRAEDTAVYYCARSAWYSGWGGDLWGQGTLVTVSSGGGGSGGGGSGGGGSGGGGSIQMTQSPSSLSASVGDRVTITCQASQSISNRLAWYQQKPGKAPKLLIYSASTLASGVPSRFSGSGSGTDFTLTISSLQPEDFATYYCQSTYYGNDGNAFGTGTKVTVLGGGGGSEVQLVESGGGLVQPGGSLRLSCAASGFSFNSDYWIYWVRQAPGKGLEWIASIYGGSSGNTQYASWAQGRFTISRDNSKNTVYLQMNSLRAEDTAVYFCARGYVDYGGATDLWGQGTLVTVSSGGGGSGGGGSIQMTQSPSSLSASVGDRVTITCQSSESVYSNNQLSWYQQKPGQPPKLLIYDASDLASGVPSRFSGSGSGTDFTLTISSLQPEDFATYYCAGGFSSSSDTAFGGGTKLTVLGGGGGSGGGGSGGGGSGGGGSEVQLVESGGGLVQPGGSLRLSCAASGFSLSSNAMGWVRQAPGKGLEYIGIISVGGFTYYASWAKGRFTISRDNSKNTVYLQMNSLRAEDTATYFCARDRHGGDSSGAFYLWGQGTLVTVSS
B6: PRO2764 (protein)
chain: B5 chain with T106C, L130R, V214T, L236Q, L386R, G420C, V470T, L492Q, L649R, L754Q
B7: PRO2760 (protein)
chain: B5 chain with L130R, N183Q, V214T, L236Q
B8: PRO2759 (protein)
chain: B5 chain with N183Q, L386R, V470T, L492Q
B9: PRO2758 (protein)
chain: B5 chain with L130R, N183Q, V214T, L236Q, L386R, V470T, L492Q, L649R, L754Q
B10: PRO2761 (protein)
chain: B5 chain with N183Q, L649R, L754Q
B11: PRO2762 (protein)
chain: DIQMTQSPASLSASVGDRVTITCQASQSIGTYLAWYQQKPGKPPKLLIYRAFILASGVPSRFSGSGSGTDFTLTISSLQPEDFATYYCQSNFYSDSTTIGPNAFGCGTKVTVLGGGGGSEVQLVESGGGRVQPGGSLRLSCAASGFSFSANYYPCWVRQAPGKGLEWIGCIYGGSSDITYDAQWTKGRFTISRDNSKNTVYLQMNSLRAEDTATYYCARSAWYSGWGGDLWGQGTQVTVSSGGGGSGGGGSGGGGSGGGGSIQMTQSPSSLSASVGDRVTITCQASQSISNRLAWYQQKPGKAPKLLIYSASTLASGVPSRFSGSGSGTDFTLTISSLQPEDFATYYCQSTYYGNDGNAFGTGTKVTVLGGGGGSEVQLVESGGGRVQPGGSLRLSCAASGFSFNSDYWIYWVRQAPGKCLEWIASIYGGSSGNTQYASWAQGRFTISRDNSKNTVYLQMNSLRAEDTATYFCARGYVDYGGATDLWGQGTQVTVSSGGGGSGGGGSIQMTQSPSSLSASVGDRVTITCQSSESVYSNNQLSWYQQKPGQPPKLLIYDASDLASGVPSRFSGSGSGTDFTLTISSLQPEDFATYYCAGGFSSSSDTAFGGGTKLTVLGGGGGSGGGGSGGGGSGGGGSEVQLVESGGGRVQPGGSLRLSCAASGFSLSSNAMGWVRQAPGKGLEYIGIISVGGFTYYASWAKGRFTISRDNSKNTVYLQMNSLRAEDTATYFCARDRHGGDSSGAFYLWGQGTQVTVSS
B12: PRO2763 (protein)
chain: B11 chain with G610C, G682C
B13: PRO2765 (protein)
chain: B11 chain with Q183N, G610C, G682C

target: pre-existing anti-drug antibodies (ADA) present in human sera; assay: ELISA pre-existing ADA binding assay, confirmatory setup, test molecule coated, 20 human sera

| Binder | % positives of total tested serum samples [%] | No of positive serum samples above 30% CCP (serum samples) |
| --- | --- | --- |
| B1 | 5 | 1 |
| B2 | 15 | 3 |
| B3 | 80 | 16 |
| B4 | 90 | 18 |

target: pre-existing anti-drug antibodies (ADA) present in human sera; assay: ELISA pre-existing ADA binding assay, confirmatory setup, test molecule coated, 20 human sera (second row for PRO1922)

| Binder | % positives of total tested serum samples [%] | No of positive serum samples above 30% CCP (serum samples) |
| --- | --- | --- |
| B3 | 80 | 16 |

target: pre-existing anti-drug antibodies (ADA) present in human sera; assay: ELISA pre-existing ADA binding assay, confirmatory setup, test molecule coated, 40 human sera

| Binder | % positives of total tested serum samples [%] | No of positive serum samples above 31.56% CCP (serum samples) |
| --- | --- | --- |
| B5 | 22.5 | 9 |
| B6 | 2.5 | 1 |
| B7 | 25 | 10 |
| B8 | 15 | 6 |
| B9 | 5 | 2 |
| B10 | 7.5 | 3 |
| B11 | 7.5 | 3 |
| B12 | 2.5 | 1 |
| B13 | 2.5 | 1 |

target: pre-existing anti-drug antibodies (ADA) present in human sera; assay: ELISA pre-existing ADA binding assay, confirmatory setup, test molecule coated, 20 human sera (second row for PRO2230)

| Binder | % positives of total tested serum samples [%] | No of positive serum samples above 30% CCP (serum samples) |
| --- | --- | --- |
| B4 | 76 | 15 |
